The values below come from patent publication US20100160228A1 (VALTION TEKNILLINEN TUTKIMUSKESKUS, published 2010).

This experiment addresses T1, VEGFR1, stably expressed in PAE cells (PAE-Flt1) (UniProt P17948 27-1338, limits assumed).
T1 construct: whole, on cells
Description: co-immunoprecipitation with anti-TCPTP from PAE-Flt1 cells transfected with the substrate-trapping mutant, immunoblot. (In general: A western blot detects proteins with antibodies after separation by electrophoresis.)
Description: Immunoprecipitations. […] After washings, the immunocomplexes were resolved on SDS-PAGE and subjected to immunoblotting. Aliquots of the original lysates (5% from IP input) were analyzed in parallel to control for protein expression.

T1 sequence (P17948 27-1338 limits assumed): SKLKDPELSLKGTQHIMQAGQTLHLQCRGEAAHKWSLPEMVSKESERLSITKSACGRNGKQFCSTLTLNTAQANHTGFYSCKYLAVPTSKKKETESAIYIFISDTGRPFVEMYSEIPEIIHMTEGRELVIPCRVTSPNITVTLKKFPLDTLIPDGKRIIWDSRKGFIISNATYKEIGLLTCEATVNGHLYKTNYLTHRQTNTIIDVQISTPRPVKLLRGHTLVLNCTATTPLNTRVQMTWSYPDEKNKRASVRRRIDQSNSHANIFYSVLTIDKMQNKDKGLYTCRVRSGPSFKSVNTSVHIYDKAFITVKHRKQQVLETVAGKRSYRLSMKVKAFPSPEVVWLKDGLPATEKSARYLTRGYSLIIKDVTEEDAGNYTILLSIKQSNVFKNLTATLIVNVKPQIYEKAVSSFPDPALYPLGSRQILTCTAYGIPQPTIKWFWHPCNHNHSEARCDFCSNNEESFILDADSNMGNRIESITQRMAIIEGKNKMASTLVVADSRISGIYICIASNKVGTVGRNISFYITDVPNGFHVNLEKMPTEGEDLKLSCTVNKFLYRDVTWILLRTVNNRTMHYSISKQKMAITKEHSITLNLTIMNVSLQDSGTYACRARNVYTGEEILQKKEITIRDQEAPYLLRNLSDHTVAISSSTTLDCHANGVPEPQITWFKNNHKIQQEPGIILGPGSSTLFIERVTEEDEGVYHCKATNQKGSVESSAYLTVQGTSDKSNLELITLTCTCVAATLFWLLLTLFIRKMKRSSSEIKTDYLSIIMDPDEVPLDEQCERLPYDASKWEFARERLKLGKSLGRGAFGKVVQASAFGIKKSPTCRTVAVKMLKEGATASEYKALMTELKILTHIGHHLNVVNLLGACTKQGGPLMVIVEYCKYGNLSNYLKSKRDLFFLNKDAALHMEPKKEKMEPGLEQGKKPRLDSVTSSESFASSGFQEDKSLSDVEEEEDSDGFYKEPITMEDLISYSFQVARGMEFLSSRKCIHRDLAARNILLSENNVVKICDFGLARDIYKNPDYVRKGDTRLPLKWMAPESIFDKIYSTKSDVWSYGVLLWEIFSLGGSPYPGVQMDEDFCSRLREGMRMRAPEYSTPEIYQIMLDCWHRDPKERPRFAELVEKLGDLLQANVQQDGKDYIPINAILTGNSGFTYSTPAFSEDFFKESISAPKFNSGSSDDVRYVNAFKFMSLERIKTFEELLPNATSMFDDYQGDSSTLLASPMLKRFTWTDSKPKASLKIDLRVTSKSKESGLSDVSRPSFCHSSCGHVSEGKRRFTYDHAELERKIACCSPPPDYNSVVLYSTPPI

B1: substrate-trapping mutant of TCPTP (TCPTP-D182A) (enzyme, UniProt P17706-2 1-387, looked up)
chain: MPTTIEREFEELDTQRRWQPLYLEIRNESHDYPHRVAKFPENRNRNRYRDVSPYDHSRVKLQNAENDYINASLVDIEEAQRSYILTQGPLPNTCCHFWLMVWQQKTKAVVMLNRIVEKESVKCAQYWPTDDQEMLFKETGFSVKLLSEDVKSYYTVHLLQLENINSGETRTISHFHYTTWPAFGVPESPASFLNFLFKVRESGSLNPDHGPAVIHCSAGIGRSGTFSLVDTCLVLMEKGDDINIKQVLLNMRKYRMGLIQTPDQLRFSYMAIIEGAKCIKGDSSIQKRWKELSKEDLSPAFDHSPNKIMTEKYNGNRIGLEEEKLTGDRCTGLSSKMQDTMEENSESALRKRIREDRKATTAQKVQQMKQRLNENERKRKRPRLTDT
notes: Expressed by transient transfection in HEK293 or PAE-Flt1 cells and immunoprecipitated from lysates with anti-TCPTP; also called pCG-TC45-D182A; T-cell protein tyrosine phosphatase D182A
For B1, the binding result is on record as “no binding”.
